Data on one protein can be found in ChEMBL document CHEMBL6074635, “Replacement of the essential nitro group by electrophilic warheads towards nitro-free antimycobacterial benzothiazinones” (Eur J Med Chem, 2024).

Substrate in data set [1]: CC(C)=CCC/C(C)=C/CC/C(C)=C/COP(=O)(O)O[C@@H]1O[C@H](CO)[C@@H](O)[C@H]1O
Description: (§1) Substrate activity at recombinant Mycobacterium tuberculosis DprE1 extracted from Escherichia coli BL21(DE3) assessed as Km incubated for 60 mins by resazurin dye based fluorescence plate reader analysis. On the technique in general: The colour change of resazurin is a common sign of viable cells or microbes.

Substrate in data set [2]: CC(C)=CCC/C(C)=C/CC/C(C)=C/CC/C(C)=C/COP(=O)(O)OC1O[C@H](CO)[C@@H](O)[C@H]1O
Described as §1.

B1: Decaprenylphosphoryl-beta-D-ribose oxidase (Mycobacterium tuberculosis (strain ATCC 25618 / H37Rv)), P9WJF1 (protein)
chain: MLSVGATTTATRLTGWGRTAPSVANVLRTPDAEMIVKAVARVAESGGGRGAIARGLGRSYGDNAQNGGGLVIDMTPLNTIHSIDADTKLVDIDAGVNLDQLMKAALPFGLWVPVLPGTRQVTVGGAIACDIHGKNHHSAGSFGNHVRSMDLLTADGEIRHLTPTGEDAELFWATVGGNGLTGIIMRATIEMTPTSTAYFIADGDVTASLDETIALHSDGSEARYTYSSAWFDAISAPPKLGRAAVSRGRLATVEQLPAKLRSEPLKFDAPQLLTLPDVFPNGLANKYTFGPIGELWYRKSGTYRGKVQNLTQFYHPLDMFGEWNRAYGPAGFLQYQFVIPTEAVDEFKKIIGVIQASGHYSFLNVFKLFGPRNQAPLSFPIPGWNICVDFPIKDGLGKFVSELDRRVLEFGGRLYTAKDSRTTAETFHAMYPRVDEWISVRRKVDPLRVFASDMARRLELL
In the case of B1, the Km (commonly the concentration of substrate that gives half-maximal velocity) in data set [1] turned out to be 740 µM; in data set [2] it was 33 µM.
